In publication PMC8437803, “Structural basis of RNA processing by human mitochondrial RNase P” (Nature Structural & Molecular Biology, 2021):

Biological target: T1, Δ1–45 PRORP (human, UniProt O15091 46-583)
T1 construct: PRORP (MRPP3), human, without the predicted mitochondrial targeting signal (residues 1-45); also called MRPP3; Δ45-PRORP; source: E. coli BL21 (DE3) RIL, purified (HisTrap, TEV cleavage, heparin, Superdex 200); not shown: His6, N-terminal, cleaved
T1 sequence (looked up): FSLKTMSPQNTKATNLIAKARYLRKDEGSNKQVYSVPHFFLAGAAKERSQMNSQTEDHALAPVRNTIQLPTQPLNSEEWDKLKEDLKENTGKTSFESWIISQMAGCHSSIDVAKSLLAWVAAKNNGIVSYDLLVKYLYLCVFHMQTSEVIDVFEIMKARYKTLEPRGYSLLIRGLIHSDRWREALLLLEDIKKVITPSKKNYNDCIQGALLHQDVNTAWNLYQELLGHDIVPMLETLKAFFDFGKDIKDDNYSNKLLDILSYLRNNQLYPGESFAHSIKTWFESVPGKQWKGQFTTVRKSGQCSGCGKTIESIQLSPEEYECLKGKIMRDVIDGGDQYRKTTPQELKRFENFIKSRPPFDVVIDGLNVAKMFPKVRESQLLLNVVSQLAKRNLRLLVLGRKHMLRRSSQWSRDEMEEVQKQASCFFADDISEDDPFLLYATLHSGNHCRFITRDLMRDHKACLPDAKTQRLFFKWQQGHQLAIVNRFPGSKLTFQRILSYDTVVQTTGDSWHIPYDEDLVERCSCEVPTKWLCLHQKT
Assay: cryo-EM structure; Δ1–39 TRMT10C–SDR5C1 complex mixed with pre-tRNA^Tyr and NADH, then PRORP added, 30 °C, 100 mM Tris-HCl pH 8.0, 100 mM NaCl, 250 μM EDTA (Mg2+-depleted), 2 mM DTT; complex purified on Superdex 200 Increase 3.2/300; single-particle cryo-EM, 3.0 Å
Details: both partners purified

binding result: binds
B1: Δ1–39 TRMT10C (enzyme, human, UniProt Q7L0Y3 40-403, looked up)
chain: MSSKIPAVTYPKNESTPPSEELELDKWKTTMKSSVQEECVSTISSSKDEDPLAATREFIEMWRLLGREVPEHITEEELKTLMECVSNTAKKKYLKYLYTKEKVKKARQIKKEMKAAAREEAKNIKLLETTEEDKQKNFLFLRLWDRNMDIAMGWKGAQAMQFGQPLVFDMAYENYMKRKELQNTVSQLLESEGWNRRNVDPFHIYFCNLKIDGALHRELVKRYQEKWDKLLLTSTEKSHVDLFPKDSIIYLTADSPNVMTTFRHDKVYVIGSFVDKSMQPGTSLAKAKRLNLATECLPLDKYLQWEIGNKNLTLDQMIRILLCLKNNGNWQEALQFVPKRKHTGFLEISQHSQEFINRLKKAKT
notes: TRMT10C (MRPP1), human, without the predicted mitochondrial targeting signal (residues 1-39); 6x His tag and TEV site on TRMT10C only; tag cleaved by TEV protease during purification; also called MRPP1; Δ39 TRMT10C; source: E. coli BL21 (DE3) RIL, coexpressed with SDR5C1, copurified (HisTrap, TEV cleavage, heparin, Superdex 200); not shown: His6, N-terminal, cleaved
